# From patent US8188081B2, “Methods of treating inflammation using prokineticin 1 receptor antagonists” (Janssen Pharmaceutica, NV, priority 2005, dated 2012)
# B1: PK1: recombinant human Prokineticin 1 expressed in HEK 293 cells, FLAG tag cleaved; mixture of full-length and four C-terminal residue truncated product (protein, UniProt P58294 20-105, looked up)
# Prokineticin-1: AVITGACERDVQCGAGTCCAISLWLRGLRMCTPLGREGEECHPGSHKVPFFRKRKHHTCPCLPNLLCSRFPDGRYRCSMDLKNINF
# modifications: mixture with C-terminal 4-residue truncated form
# notes: recombinant human Prokineticin 1 expressed in HEK 293 cells, FLAG tag cleaved; mixture of full-length and four C-terminal residue truncated product
# Experiments:
# PK1R [1] = target: T1, PK1R (Rattus norvegicus, UniProt Q8R416); settings: test compound 1 μM basolateral, 15 min; PK1 10 and 100 nM cumulative; FIGS. 9-11
# T1 sequence (Q8R416 whole entry): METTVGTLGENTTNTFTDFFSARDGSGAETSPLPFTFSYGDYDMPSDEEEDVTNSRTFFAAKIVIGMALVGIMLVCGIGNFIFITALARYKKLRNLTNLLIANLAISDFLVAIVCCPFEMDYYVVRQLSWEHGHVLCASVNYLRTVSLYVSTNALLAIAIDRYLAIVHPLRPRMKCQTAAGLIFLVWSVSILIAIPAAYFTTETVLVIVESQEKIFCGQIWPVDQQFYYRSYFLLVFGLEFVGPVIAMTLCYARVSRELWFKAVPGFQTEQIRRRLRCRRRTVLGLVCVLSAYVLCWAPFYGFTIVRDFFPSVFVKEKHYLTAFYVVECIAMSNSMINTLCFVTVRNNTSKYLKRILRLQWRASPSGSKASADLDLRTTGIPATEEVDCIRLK
# Protocol: Methodology. The basic methodology for Using-type ion flux chambers used in these studies was the same as that described in detail above with the following modifications to the experimental protocol. […] The responses to two sequential EFS were used to guage tissue viability and comparability of the responses of individual tissues from each rat and between rats. Tissue conductance was measured at periodic intervals as changes in the amplitudes of brief short-circuit current responses evoked by application of 1 mV amplitude bi-polar pulses from a pulse generator using Ohm's Law. Three to four tissues from each rat were studied. The tissues from a given animal were grouped and assigned accordingly: one control tissue which received only vehicle followed by two consecutive doses of PK1 ligand added in a cumulative fashion to the basolateral surface of the tissue; the remaining two to three tissues from the same animal were assigned to be exposed to a given PK1 receptor antagonist (e.g., 3-4 tissues from 1 rat: Control, Antagonist1, Antagonist2, Antagonist3). Test compound was added to the basolateral tissue side reservoir at a final concentration of 1 μM and allowed a 15 minute incubation period prior to challenge with the PK1 peptide. At the end of this 15 minute exposure period, PK1 ligand at 10 and 100 nM was added in a cumulative fashion to each tissue to characterize the inhibitory effect of the test compound. At the conclusion of the experiment, EFS was re-applied to guage tissue viability and stability of responsiveness.
# PK1R [2] = target: T1, PK1R; assay: Inhibition of PK1-induced contraction of rat ileal longitudinal smooth muscle by PK1R antagonists (organ bath); parameters: from tissue; host or cells: isolated rat ileum (organ bath); settings: FIG. 19
# Excerpt: The effects of PK1 on isolated segments of rodent gastrointestinal (GI) tissues have been studied ex vivo, using a “myobath” apparatus. This organ bath apparatus is used to measure the changes in contractile activity of GI smooth muscle following application of PK1, in the presence or absence of compounds that block PK1 receptor (PK1R)-mediated increases in intracellular free Ca^2+ in PK1R-transfected cells in vitro.
# Methods. Rodents (mice, rats, and guinea pigs) were euthanized by […], and exsanguinated. Segments of GI tissues, including stomach, duodenum, jejunum, ileum, proximal colon and distal colon were resected from the animals and mounted, either as intact segments (i.e., 15 mm long cylinders of intestine) or flat strips (˜2.5 mm×15 mm) oriented along the longitudinal muscle axis. In some experiments flat strips were oriented along the circular muscle axis. […]
# The tissues were lengthened to impart a resting load of between […] (depending on the preparation), and equilibrated under these conditions for 1 hr, changing the bathing solution to fresh KRB every 15 min. […] The response to PK1 under these conditions is compared to the response of the same tissue preparation to ACh and the contraction (or relaxation) calculated as a percent of the response to ACh. […]
# [3] = tested on: ileum mucosal tissues from PK1 receptor knock-out mice; assay: PK1-evoked Isc in ileum mucosal tissues from PK1 receptor knock-out mice; settings: exogenous PK1 peptide; FIG. 5
# rat small intestine [4] = assay: Enteropooling and accumulation of fluid in rat small intestine in vivo; settings: 30 min
# Protocol: Methodology. Experiments were carried out to gravimetrically measure the in vivo pro-secretory effect of PK1 peptide in the rat small bowel. The effect of PK1 peptide on stimulation of enteropooling and accumulation of fluid in the gut of intact rats was evaluated using two different routes of administration. Non-fasted rats were randomly assigned to two experimental groups (n=10 per group) in two separate experiments. In the first experiment, each rat was given an oral bolus (1.5 ml) of 6% carmine dye in 0.5% methylcellulose wt/vol containing a dose of PK1 peptide at 100 μg/kg or buffer vehicle. (See FIG. 12). […] (See FIG. 13). Thirty minutes later, rats were rapidly euthanized by cervical dislocation after inhalation anesthesia with 100% carbon dioxide and the entire small intestine was excised from the pylorus to the ileocecal junction. The total small bowel length was measured and then divided equally into thirds using 4-0 silk suture loops to ligate, isolate, and separate each segment to prevent leakage of intraluminal contents. […] Net fluid content weight was calculated as the difference between intact and empty intestinal segment weights to the nearest milligram and normalized to segment wet tissue weight in grams.
# rat small intestine [5] = assay: Small intestinal transit of an oral carmine test meal in rats in vivo; settings: oral PK1 100 μg/kg; 30 min; FIG. 14
# Protocol: Methodology. Small intestinal transit. Rats received a bolus of 1.5 ml total volume that contained a 6% solution of carmine dye in 0.5% methyl cellulose (wt/vol) together with a dose of either PK1 (100 μg/kg) or vehicle by oral feeding tube. After 30 min, the rats were rapidly euthanized by cervical dislocation after inhalation anesthesia with 100% carbon dioxide. The entire small intestine of each rat was carefully resected starting at the ileal-cecal junction first and working back toward the pylorus of the stomach until the entire small intestine had been removed intact. The excised small bowel was arranged lengthwise along a metric straight-edge, and the length of the entire small intestine was measured in centimeters. The leading edge of the carmine dye front was visualized and the distance traveled by the carmine was also measured and calculated as a percentage of the total excised length of the small intestine. Transit was expressed as the percentage of the total intestinal length traveled by the carmine dye in 30 minutes.
# rat ileum = assay: Contractility of isolated rat GI segments ex vivo (myobath organ bath), response to PK1
molecule,measurement,setting,value
[H]/N=C(\N)NCCNc1nc(=O)n(Cc2ccc(F)cc2)c(=O)n1Cc1ccc(OC)cc1 [JNJ 27624675],suppression of the PK1 evoked increase in Isc,PK1R [1],suppressed
COc1ccc(Cn2c(NCCNC(=N)NC(C)C)nc(=O)n(Cc3ccc(Cl)c(Cl)c3)c2=O)cc1 [JNJ 28480894],suppression of the PK1 evoked increase in Isc,PK1R [1],suppressed
COc1ccc(Cn2c(NCCn3c(N)nc4ccccc43)nc(=O)n(Cc3ccc(F)cc3)c2=O)cc1 [JNJ 28845557],suppression of the PK1 evoked increase in Isc,PK1R [1],suppressed
same,early versus late response inhibition,PK1R [2],more potent and more effective at inhibition of the early response
same,effect on the PK1-induced contraction of rat ileal longitudinal smooth muscle,PK1R [2]; early and late components,concentration-dependent inhibitory effect
B1,change in Isc in tissues from PK1 receptor knock-out mice compared to wild-type littermates,[3],did not elicit a significant change in Isc
same,fluid accumulation in rat small bowel in vivo,"rat small intestine [4]; intraperitoneal PK1 100 μg/kg, FIG. 13",stimulates fluid accumulation
same,fluid accumulation in rat small bowel in vivo,"rat small intestine [4]; oral PK1 100 μg/kg, FIG. 12",stimulates fluid accumulation
same,small intestinal transit of a carmine test meal compared to vehicle,rat small intestine [5],significantly accelerated
same,"response of intestinal tissues (mid-duodenum, jejunum, distal ileum)",rat ileum; PK1 100 nM,evoked longitudinal contractions
same,response of proximal and distal colon,rat ileum; PK1 100 nM,evoked longitudinal relaxations
same,"time to peak contraction, early phase",rat ileum; isolated rat ileum,6.4 min
same,"time to peak contraction, late phase",rat ileum; isolated rat ileum,53.8 min
